# B1: TPR t1 (parent)
# chain: GACCAAUCUGCCCUCAGAGCUCGAGAACAUCUUCGGAUGCAGAGGAGGCAGGCUUCGGUGGCGCGAUAGCGCCAACGUCCUCAACCUCCAAUGCAUCCCACCACAUGAUGAUGCCUGAAGAGCCUUGGUUUUUUG
# Variants of: B1
# Test: polymerase ribozyme fitness, log enrichment relative to wild type (log ratio); higher = more active; in vitro selection for triplet polymerase activity
# Method in brief: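 A single round of triplicate in vitro selection, including frozen incubation at −7 °C, was applied to PCR-built, transcribed mutant libraries of each subunit of a heterodimeric triplet polymerase ribozyme. Illumina sequencing of input and output libraries retained genotypes with ≥10 input reads and ≥1 read per output. Fitness is the base-2 logarithm of genotype enrichment divided by wild-type enrichment, from inverse-variance-weighted replicate averages.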
row,Variant,polymerase ribozyme fitness (log ratio)
1,GACCUAUCUGCCCUCAGAGCUCGAGAACAUCUUCGGAUGCAGAGGAGGCAGCCUUCGGUGGCGCGAUAGCGCAAACGUCCUCAACCUCCAAUGCAUCCCAUCACAAGACGAUGCCUGAAGAGCCUUGGUUUUUUU [A5U G52C C73A C101U U106A U109C G135U],-5.42
2,GACCUAUCGGCCCUCAGAGCUCGAGAACAUCUUCGGAUGCAGAGGAGGCAGGCUUCGGUGGAGCGAUAGCGCCAACGUCCUCAACCUCCAAUGCAUCCCACCACAUGAUGAUGCCUGAAGAGCCUUGGUUUUUUG [A5U U9G C62A],-0.961
3,GACCUAUCUGCCCUCAGAGCUCGAGAACAUCUUCGGAUGCAGAGGAAGCAGGCUUCGGUGGCGCGAUAGCGCCAACGUCCUCAACCUCCAAUGCAUCCCACCACAUGAUGAUGCCUGAAGAGCUUAGGUUUUUUG [A5U G47A C124U U126A],0.649
4,GACCUAUCUGCCCUCAGAGCUCGAGAACAUCUUCGGAUGCAGAGGAGGCAGGCUUCGGUGACGCGAUAGCGCCAACGUCCUCAACCUCCAAUGCAUCCCACCACAUGAUGAUGCCUGAAGAGCCUUGGUUUUUUG [A5U G61A],-0.0027
5,GACCUAUCUGCCCUCAGAGCUCGAGAACAUCUUCGGAUGCAGAGGAGGCAGGCUUCGGUGGCGCGAUAGCUCCAACGUCCUCAACCUCCAAUGCAUCCCACCACAUGAUGAUGCCUGAAGAGCCUUGGUUUUUUG [A5U G71U],-0.497
6,GACCUAUCUGCCCUCAGAGCUCGAGAACAUCUUCGGAUGCAGAGGAGGCAGGCUUCGGUGGCGCGAUAGCGCCAACGUCCUCAACCUCCAAUGCAUCCCACCACAUGAUGAAGCCUGUAGAGCCCUGGUUUUUUG [A5U U112A A118U U125C],0.369
7,GACCACUCUGCCCUCAGAGCUCGAGUACAUCUUCGGAUGCAGAGGAGGCAGGCUUCGGUGGUGCGAUAGCGCCAACGUCCUCAACCUCCAAUGCAUCCCACCACAUGAUGAUGCCUGAAGAGCCUUGGUUUUUUG [A6C A26U C62U],-2.91
8,GACCUAUCUGCCCUCAGAGCUCGAGAACAUCUUCGGAUGCAGAGGAGGCAGGCUUCGGUGGCGCGAUAGCGCCAACGUCCACAACCUCCAAUGCAUCCCACCACAUGAUGAUGCCUGAAGAGCCUUGGUUUUUUG [A5U U81A],-1.15
9,GACCUAUCUGCCCUCAGAGCUCGAGAACAUCUUCGGAUGCAGAGGAGGCAGGCUUCGGUGGCCCGAUAGCGCCAACGUCCUCAACCUCCAAUGCAUCCCACCACAUGAUGAUGCCUGAAGAGCCUUGGUUUUUUG [A5U G63C],-0.837
10,GACCUAUCUGCCCUCAGAGCUCGAGAACAUCUUCGGAUGCAGAGGAGGCAGGCCUCGGUAGCGCGAUAGCGCCAACGUCCUCAACCUCCAAUGCAUCCCACCACAUGAUGACGCCUGAAGAGCCUUGGUUUUUUG [A5U U54C G60A U112C],1.52
11,GACCUAUCUGCCCUCAGAGCUCGAGAACAUCUUCGGAUGCAGAGGAAGCAGGCUUCGGUGGCGCGAUAGCGCCAACGUCCUCAACCUCCAAUGCAUCCCACCACAUGAUGAUUCCUGAAGAGCCUUGGUUUUUUG [A5U G47A G113U],-3.72
12,GACCUAUCUGCCCUCAGAGCUCGAGAACAUCUUCGGAUGCAGAAGAGGCAGGCUUCGGUGGCGCGAUAGCGCCUACGUCCUGAACCGCCAAUGCAUCCCACCACAUGAUGAUGCCUGAAGAGCCUUGGUUUUUUG [A5U G44A A74U C82G U87G],-4.13
13,GACCUAUCCGCCCUCAGAGCUCGAGAACAUUUUCGGAUACAGAGGAGGCAGGCUUCGGUGGCGCGAUAGCGCCAACGUCCUCAACCUCCAAUGCAUCCCACCACAUGAUGAUGCCUGAAUAGCCUUGGUUUUUUG [A5U U9C C31U G39A G120U],-3.67
14,GACCUAUCUGCCCUCAGAGCUCGAGAACAUCUUCGGAUGCAGACGAGGCAGGCUUCGGUUGCGCGAUAGCGCCAACGUCCUCAACCUCCAAUGCAGCCCACCACAUGAUGAUGCCUGAAGAGCCUUAGUUGUUUG [A5U G44C G60U U96G G127A U131G],-3.9
15,GACCACUCUGCCCUCAGAGCUCGAGAGCAUCUUCGGAUGCAGAGGAGGCAGGCUUCGGUGGCGCGAUAGCGCCAACGUCCUCAACCUCCAAUGCAUCCCACCACAUGAUGAUGCCUGAAGCGCCUUGGUUUUUUG [A6C A27G A121C],-0.0909
16,GACCACUCUGCCCUCCGAGCUCGAGAACAUCUUCGGAUGCAGACGAGGCAGGCUUCGGUGGCGCGAUAGCGCCAACGUCCUCAACCUCCAAUGCAUCCCACCACAUGAUGAUGCCUGAAGAGCCUUGGUUUUUUG [A6C A16C G44C],-3.74
17,GACCUAUCUGCCCUCAGAGCUCGAGAACAUCUUCGUAUGCAGAGGAGGCAGGCUUCGGUGGCGCGAUAGCGCCAACGUCCUCAACCUCCAAUGCAUCCCACCACAUGAUGAUGCCUGAAGAGCCUUGGUUUUUUG [A5U G36U],-1.3
18,GACCUAUCUGCCCUCAGAGCUCGAGAACAUCUUCGGAUGCAGACGAGGCAGGCUUCGGUGGCGCGAUAGCGCUAACGUCCUCAACCUCCAAUGCAUCCCACCACAUGAUGAUGCCUGAAGAGCCUUGGUUUUUUG [A5U G44C C73U],-1.65
19,GACCUAUCUGCCCUCAGAGCUCGAGAACAUCUUCGGAUGCAGAGGAGGCAGGCUUCGGUGGCUCGAUAGCGCCAACGUCCUCAACCUCCAAUGCAUCCCACCACAUGAUAAUGCCUGAAGAGCCUUGGUUUUUUG [A5U G63U G110A],-2.89
20,GACCUAUCUGCCCUCAGAGCUCGAGAACAUCUUCGGAUGCAGAGGAUGCAGGCUUCGGUGGCGCGAUAGCGCCAACGUCCUCAACCUCCAAUGCAUCCCACCACAUGAUGAUGCCUGAAGUGCUUUGGUUUUUUG [A5U G47U A121U C124U],0.495
21,GACCUAUCGGCCCUCAGAGCUCGAGAACAUCUUCGGAUGCAGAGGAAGCAGUCUUCGGUGGCGCGAUAGCGCCAACGUCCUCAACCUCCAAUGCAUCCCACCACAUGAUGAUGCCUGAAGAGCCUUGGUUUUUUG [A5U U9G G47A G52U],-1.96

row,Variant,polymerase ribozyme fitness (log ratio)
1,GACCUAUCUGCCCUCAGAGCUCGAGAACAUCUUCGGAUGCAGAGGAGGCAGGCUUCGGUCGCGCGAUAGCGCCAACGUCCUCAACCUCCAAUGCAUCCCACCACAUGAUGAUGCCUGAAGAGCUUUGGUUUUUUG [A5U G60C C124U],-0.742
2,GACCUAUCUGCCCUCAGAGCUCGAGAACAUCUUCGGAAGCAUAGGAGGCAGGCUUCGGUGGCGCGAUAGCGUCUACGUCCUCAAACUCCAAUGCAUCCCAACACAUGAUGAUGCCUGAAGAGCCUUGGUUUUUUG [A5U U38A G42U C72U A74U C85A C101A],-5.64
3,GACCUAUCUGCCCUCAGAGCUCGAGAACAUCUUCGGAUGCAGAGGAGGCAGGCUUCGGUUGCGCGAUAGCGCCAACGUCCUCAACCUCCAAUGCAUCCCACCACAUGAUGAUGCCUGAAGAGCCUUGGUUUUUUG [A5U G60U],-0.228
4,GACCUAUCUGCCCUCAGAGCUCGAGAACAUCUUCGGAUGCAGAGGAGGCAGGCUUCGGUGGCCCGAUAGCGCCAACGUCCUCAAACUCCAAUGCAUCCCAACACAUGAUGAUGCCUGUAGAGCCUUGGUUUUUUG [A5U G63C C85A C101A A118U],-2.94
5,GACCUAUCUACCCUCAGAGCUCGAGAACAUCUUCGGAUGCAGAGGAGGCAGGCUUCGGUGGCGCGAUAGCGCCAACGUCCUCAACUUCCAAUGCAUCCCACUACAUGAUGAUACCUGAAGAGCCUUGCUUUUUUG [A5U G10A C86U C102U G113A G128C],-5.52
6,GACCACUCUGCCCUCAGAGCUCGGGAACAUCUUCGGUUGCAGAGGAGCCAGGCUUCGGUGGCGCGAUACCGCCAACGUGCUCAAGCUCCAAUGCAUCCCAACACAUGAUGAUGCCUGAAGAGCUUUGGUUUUUUG [A6C A24G A37U G48C G69C C79G C85G C101A C124U],-5.82
7,GACCUAUCUGCCCUCAGAGCUCGAGAACAUCUUCGGAUGCAGAGGAGGCAGUCAUCGGUGGCGCGAUAGCGCCAACGUCCUCAACCUCCAAUGCAUCCCACCACAUGAUGAUGCCUGAAGAGCCUUGGUUUUUUG [A5U G52U U54A],-1.51
8,GACCUAUCUGCCCUCAGAGCUCGAGAACAUCUUCGGAUGCAGAGGAGGCAGGCUUCGGUGGCGCGAUAGCCCCAACGUCCUCAACCUCCAAUGCAUCCCACGACAUGAUGAUGGGUGAAGAGCCUUGGUUUUUUG [A5U G71C C102G C114G C115G],-6.55
9,GACCUAUCUUCCCUCAGAGCUCGAGAACAUCUUCGGAUGCAGAGCAGGCAAGCUUCGGUGGCGCGAUAGCGCCAACGUCCUCAACCUCCAAUGCAUCCCACCACAUGAUGAUGCCUGUAAAGCCUUGGUUUUUUG [A5U G10U G45C G51A A118U G120A],-2.81
10,GACCUAUCUGCCCUCAGAGCUCGAGAACAUCUUCGGAUGCAGAGGAGGCAGGCUUCGGAGGCGCGAUAGCGCCAACGUCCUCAACCUCCAAAGCAUCCCACCACAUGAUGAUGCCUGAAGAGCCUUGGGUUUUUG [A5U U59A U92A U129G],-3.92
11,GACCUAUCUGCCCUCAGAGCUCGAGAACAUCUUCGGAUGCAGAGGAGGCAGGCUUCGGUGUCGCGAUAGCGCCAACGUCCUCAACCUCCAAUGCAUCCCACCACAUGAUGAUGCCUGAAGAGCAUUGGUUUUUUG [A5U G61U C124A],1.19
12,GACCUAUCUGCCCUCAGAGCUCGAGAACAUCUUCGGAUUCAGAGGAGGCAGGCUUCGGUGGCGCGAUAGCGCCAACGUCCUCAACCUCCAAUGCAUCCCACCACAUGAUGAUGCCUGAAGAGCCUUGGUUUUUUG [A5U G39U],-1.13
13,GACCUAUCUGCCCUCAGAGCUCGAGAACAUCUUCGGAUCCAGAGGAGGCAGGCUUCGGUGGCGCGAUAGCGCCAACGUCCUCAACCUCCAAUGCAUCCCACCACUUGAUGAUGCCUGAAGAGCCUUGGUUUUUUG [A5U G39C A105U],-3.56
14,GACCACUCUGCCCUCAGUGCUCGAGAACAUCUUCGGAUGCAGAGGAGGCAGGCUUCGGUGGCGCGAUAGCGCCAACGUCCUCAACCUCCAAUGCAUCCCACCACAUGAUGAUGCCUGAAGAGCCUUGGUUUUUUG [A6C A18U],-2.13
15,GACCUAUCUGCCCUCAGAGCUCGAGAACAUCUUCGGAUGCAGAGGAGGCAGGCUUCGGUGCCGCGAUAGCGCCAACGUCCUCAACCUACAAUGCAUCCCACCACAUGAUGAUGCCUGAAGAGCCUUGGUUUUUUG [A5U G61C C88A],-2.27
16,GACCUAUCUACCCUCAGAGCUCGAGAACAUCUUCGCAUGCAGAGGAGGCAGGCUUCGGUCGCGCGAUAGCGCCAACGCCCUCAACCUCCAAUGCAUCCCACCACAUGAUGAUGCCUGAAGAGCUUUGGUUUUUUG [A5U G10A G36C G60C U78C C124U],-2.58
17,GACCUAUCUGCCCGCAGAGCUCGAGAACAUCUUCGGAUGCAGAGGAGGCAGGCUUCGGAGGUGCGAUAGCGCCAACGUCCUCAACCUCCAAUGCAUCCCACCACAUGAUGAUGCCUGAAGAGCCUUGGUUUUUUG [A5U U14G U59A C62U],-2.15
18,GACCACUCUGCCCUCAGAGCUCGGGGACAUCUUCGGAUGCAGAGGAGGCAGGCUUCGGUGGCGCGAUAGCGCCAACGUCCUCAACCGCCAAUGCAUCCCACCACAUGAUGACGCCUGAAGGGCCUUGGUUUUUUG [A6C A24G A26G U87G U112C A121G],-0.944
19,GACCUAUCUGCCCUCAGAGCUCGAGAACAUCUUCGGAUGCAGAGGAAGCAGGCUUCGGUGGCGCGAUAGCGCCAACGUCCUCAACCUCCAAUGCAUCCCACCACAUGAUGAUGCCUGAAGAGCCUUGGUUUUUUG [A5U G47A],-1.21
20,GACCUAUCUGCCCUCAGAGCUCGAGAACAUCUUCGGAUGCAGAGGAGGCAGGCUUCGGUGGCCCGAUAGCGCCAACGUCCUCAACCUCCAAUGCAUCCCACCACAUGAUGAUGCCUAAAGAGCCUUGGUUUUUUG [A5U G63C G117A],-3.54
21,GACCUAUCCGCCCUCAGAGCUCGAGAACAUCUUCGGAUGCAGAGAAGGCAGGCUUCGGUGGCGCGAUAGCGCCAACGUCCUCAACCUCCAAUGCAUCCCACCACAUGAUGAUGCCUGAAGAGCCUUGGUUUUUUG [A5U U9C G45A],-0.0819
